Experimental findings from patent publication US20190062383A1 (Janssen / Centocor, published 2019) are described below.

This assay addresses KV1N2 (OsK1-Fc fusion) (Orthochirus scrobiculosus). Nature of the assay: FACS competition with agitoxin2-cys-TAMRA.

B1: hKv1.3 E3 loop/hKv1.5 chimera (receptor)
chain: MEIALVPLENGGAMTVRGGDEARAGCGQATGGELQCPPTAGLSDGPKEPAPKGRGAQRDADSGVRPLPPLPDPGVRPLPPLPEELPRPRRPPPEDEEEEGDPGLGTVEDQALGTASLHHQRVHINISGLRFETQLGTLAQFPNTLLGDPAKRLRYFDPLRNEYFFDRNRPSFDGILYYYQSGGRLRRPVNVSLDVFADEIRFYQLGDEAMERFREDEGFIKEEEKPLPRNEFQRQVWLIFEYPESSGSARAIAIVSVLVILISIITFCLETLPEFRDERELLRHPPAPHQPPAPAPGANGSGVMAPPSGPTVAPLLPRTLADPFFIVETTCVIWFTFELLVRFFACPSKAGFSRNIMNIIDVVAIFPYFITLGTELAEQQPGGGGGGQNGQQAMSLAILRVIRLVRVFRIFKLSRHSKGLQILGKTLQASMRELGLLIFFLFIGVILFSSAVYFAEADDPTSGFSSIPDAFWWAVVTMTTVGYGDMHPVTIGGKIVGSLCAIAGVLTIALPVPVIVSNFNYFYHRETDHEEPAVLKEEQGTQSQGPGLDRGVQRKVSGSRGSFCKAGGTLENADSARRGSCPLEKCNVKAKSNVDLRRSLYALCLDTSRETDL
On to B1, for which the binding result is reported as “binds”.
